Laboratory results published in US20020032322A1.

Biological target: TWIK-1 (human)
Test: cell-based or functional assay

Substance	inhibition of TWIK-1 K+ currents (voltage clamp, Xenopus oocytes) [% inhibition]
charybdotoxine (from UniProt P13487 23-59) (peptide)	< 10
apamin (from UniProt P01500 28-45) (peptide)	< 10
dedrotoxine (peptide)	< 10
